The labels stand for the following.
B1: Azoarcus group I ribozyme (parent)
chain: GUGCCUUGCGCCGGGAAACCACGCAAGGGAUGGUGUCAAAUUCGGCGAAACCUAAGCGCCCGCCCGGGCGUAUGGCAACGCCGAGCCAAGCUUCGGCGCCUGCGCCGAUGAAGGUGUAGAGACUAGACGGCACCCACCUAAGGCAAACGCUAUGGUGAAGGCAUAGUCCAGGGAGUGGCGAAAGUCACACAAACCGG

In this data set the parent is B1. Kind of data set: reverse-splicing fitness (ratio to wild type); higher = more active; in vitro selection; Mg2+ level not given. The method in brief:
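An in vitro group I ribozyme library with randomized positions was T7-transcribed and gel-purified. In triplicate, 10 pmol RNA in EPPS pH 7.5 was reacted with 50 pmoles of a 30-nt RNA substrate for 1 h at 37 °C across several added MgCl2 levels (1–48 mM), then stopped with EDTA. Products were reverse transcribed from a substrate-complementary primer, PCR-amplified and sequenced (HiSeq 4000). Fitness is a variant's read proportion after selection over that before, normalised to wild type.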
Turning to C82G A145C C169U U176A, the reverse-splicing fitness was found to be 0.0128.
Turning to C82G A145C C169U U176C, the reverse-splicing fitness worked out at 0.0115.
The figure for C82G A145C C169U U176G is 0.00465; for C82G A145U C150A C169U U176C it is 0.013; for C82G A145U C150A C169U U176A it is 0.0124.
Take C82G A145U C150A C169U U176G: the reverse-splicing fitness was 0.00507.
Turning to C82G A145C C150G, the reverse-splicing fitness was determined as 0.0512.
The figure for C82G A145C C150A is 0.0227; for C82G A145C C150U it is 0.0965.
As to C82G A120U C150U U176A, the reverse-splicing fitness is 0.0366.
The figure for C82G A120U C150U U176C is 0.058; for C82G A120U C150U U176G it is 0.0119; for C82G A120U C150U C169G U176C it is 0.00376.
The figure for C82G A120U C150U C169G U176G is 0.00205.
In the case of C82G A120U C150U C169G U176A, the reverse-splicing fitness is 0.00481.
Regarding C82G A120U A145U C150A U176G, the reverse-splicing fitness stood at 0.00423.
For the variant C82G A120U A145U C150A U176A, the reverse-splicing fitness stood at 0.0083.
To C82G A120U A145U C150A U176C belongs 0.0105; to C82G A120U C150A C169G U176G, 0.00199; to C82G A120U C150A C169G U176A, 0.00631.
As to C82G A120U C150A C169G U176C, the reverse-splicing fitness was determined as 0.00368.
As to C82G A145C C150U C169U, the reverse-splicing fitness was 0.00975.
For the variant C82G A145C C150U C169A, the reverse-splicing fitness turned out to be 0.00797.
To C82G A145C C150U C169G belongs 0.00731.
To C82G A145C C150G C169G U176C belongs 0.00656; to C82G A145C C150G C169G U176A, 0.00973; to C82G A145C C150G C169G U176G, 0.0054.
On to C82G A145U C150U C169A U176A, for which the reverse-splicing fitness came out at 0.0114.
The figure for C82G A145U C150U C169A U176C is 0.00851; for C82G A145U C150U C169A U176G it is 0.00466; for C82G A145G C150A C169G U176A it is 0.017.
The figure for C82G A145G C150A C169G U176C is 0.0286.
The figure for C82G A145G C150A C169G U176G is 0.00515.
Take C82G A120U A145U C150A C169G U176G: the reverse-splicing fitness was 0.00134.
The figure for C82G A120U A145U C150A C169G U176C is 0.00192; for C82G A120U A145U C150A C169G U176A it is 0.00221; for C82G A145U C150A C169G U176A it is 0.0109.
To C82G A145U C150A C169G U176C belongs 0.0129; to C82G A145U C150A C169G U176G, 0.00436; to C82G A120U A145U C150G C169A U176C, 0.00187.
Consider C82G A120U A145U C150G C169A U176G, for which the reverse-splicing fitness stood at 0.00205.
The figure for C82G A120U A145U C150G C169A U176A is 0.0026; for C82G A145U C150A C169A U176C it is 0.0106; for C82G A145U C150A C169A U176A it is 0.0121.
The figure for C82G A145U C150A C169A U176G is 0.00561; for C82G A120U A145G C169A U176G it is 0.00159; for C82G A120U A145G C169A U176C it is 0.00321.
To C82G A120U A145G C169A U176A belongs 0.00356.
Regarding C82G A145C C150U C169U U176A, the reverse-splicing fitness stood at 0.0142.
The figure for C82G A145C C150U C169U U176G is 0.00436; for C82G A145C C150U C169U U176C it is 0.00905; for C82G A120U A145G C150U U176A it is 0.0528.
As to C82G A120U A145G C150U U176G, the reverse-splicing fitness is 0.0104.
To C82G A120U A145G C150U U176C belongs 0.0776.
Regarding C82G A145C U176G, the reverse-splicing fitness was 0.153.
To C82G A145C U176C belongs 0.35; to C82G A145C U176A, 0.378; to C82G A120U A145U C169U U176C, 0.00402.
For C82G A120U A145U C169U U176A, the reverse-splicing fitness is 0.00334.
The figure for C82G A120U A145U C169U U176G is 0.00148; for C82G A145G C150U C169G U176C it is 0.0184; for C82G A145G C150U C169G U176A it is 0.0145.
The figure for C82G A145G C150U C169G U176G is 0.00499; for C82G A145C C150G C169A U176C it is 0.00634; for C82G A145C C150G C169A U176A it is 0.00807.
The figure for C82G A145C C150G C169A U176G is 0.00487.
C82G A120U C150A U176A: the reverse-splicing fitness was found to be 0.0102.
The figure for C82G A120U C150A U176C is 0.0129; for C82G A120U C150A U176G it is 0.00569; for C82G A120U C150G C169A U176A it is 0.00571.
The figure for C82G A120U C150G C169A U176G is 0.00278; for C82G A120U C150G C169A U176C it is 0.00402; for C82G A145C C150U C169G U176G it is 0.00533.
To C82G A145C C150U C169G U176A belongs 0.019; to C82G A145C C150U C169G U176C, 0.00942.
In the case of C82G A120U A145U C169G, the reverse-splicing fitness stood at 0.00637.
Regarding C82G A120U A145U C169A, the reverse-splicing fitness was 0.00221.
The figure for C82G A120U A145U C169U is 0.00672; for C82G A120U A145U C169G U176A it is 0.00234.
Turning to C82G A120U A145U C169G U176G, the reverse-splicing fitness was found to be 0.00119.
To C82G A120U A145U C169G U176C belongs 0.00292; to C82G A120U C150G, 0.0146.
To C82G A120U C150A belongs 0.0159.
